Source: PMC7963221 (2021)

B1: ADG-2 (antibody, V domains shown)
VH: EVQLVESGGGLVKPGGSLRLSCAASGFTFSSYYMNWVRQAPGKGLEWVSSISEDGYSTYYPDSLKGRFTISRDSAKNSLYLQMNSLRADDTAVYYCARDFSGHTAWAGTGFEYWGQGTLVTVSS
VL: QSVLTQPPSVSGAPGQRITISCTGSSSNIGAGYDVHWYQQLPGTAPKLLIYGSSSRNSGVPDRFSGSKSGTSASLAITGLQAEDEADYYCQSYDSSLSVLYTFGTGTKVTVL
B2: ADG-1 (antibody, V domains shown)
VH: QVQLVESGGGLVQPGGSLRLSCSASGFTFSRFAMHWVRQAPGKGLEYVSAINLNGDSKYYTDSVRGRFTISRDNSKNTLYLQMSSVRPDDTAFYYCVKDGGYYDSSGPGHWGQGTLVTVSS
VL: EIVLTQSPATLSLSPGERATLSCRASENILHYLAWYQQKPGQAPRLVIYDASRRATGIPGRFSGSGAGTDFTLTINSLEPEDFAVYYCQQRANWPQNFGGGTKVEIK
B3: ADG-3 (antibody, V domains shown)
VH: EVQLVESGGGLIQPGGSLRLSCAASGFPFKGTYMTWVRQAPGKGLEWVSIIYSGGDTYYADSVKGRFTISRDNSKNTLFLQMNSLRVEDTAMYYCARDREMAIITERTYGLDVWGQGTMVTVSS
VL: QSVLTQPPSASGTPGQRVTISCSGGSSNIGSNSVNWYQQLPGTAPKLLIYSNSQRPSGVPDRFSGSKSGTSASLAISGLQSEDEADYYCAAWDDSLNTFRYVFGTGTKVTVL

How the values were obtained:
Test in all cases: FACS
[1] = target: GD-Pangolin RBD
[2] = target: A021 RBD
[3] = target: Frankfurt 1 RBD
[4] = target: SHC014 RBD
[5] = target: LYRa11 RBD
[6] = target: Rs4231 RBD
[7] = target: Civet 007-2004 RBD
[8] = target: WIV1 RBD
[9] = target: Pangolin_GX- RBD
[10] = target: CS24 RBD
[11] = target: SARS-CoV RBD displayed on the surface of yeast (SARS-CoV, UniProt P59594)
[12] = target: SARS-CoV-2 RBD (WT) displayed on the surface of yeast (SARS-CoV-2, UniProt P0DTC2)
[13] = target: RaTG13 RBD
[14] = target: BM48-31 RBD

Row | Binder | Kd [1] | Kd [2] | Kd [3] | Kd [4] | Kd [5] | Kd [6] | Kd [7] | Kd [8] | Kd [9] | Kd [10] | Kd [11] | Kd [12] | Kd [13] | Kd [14]
1 | B1 | 240 pM | 470 pM | 380 pM | 330 pM | 470 pM | 400 pM | 350 pM | 420 pM | 1120 pM | 450 pM | 390 pM | 430 pM | – | –
2 | B2 | 870 pM | 950 pM | 970 pM | – | 790 pM | – | 780 pM | 680 pM | – | 970 pM | 1090 pM | 730 pM | – | –
3 | B3 | 680 pM | 910 pM | 960 pM | 930 pM | 920 pM | 1070 pM | 900 pM | 720 pM | – | 1050 pM | 910 pM | 550 pM | 880 pM | 3090 pM
